B1: Macrophage scavenger receptor types I and II (Homo sapiens), P21757 (parent)
chain: MEQWDHFHNQQEDTDSCSESVKFDARSMTALLPPNPKNSPSLQEKLKSFKAALIALYLLVFAVLIPLIGIVAAQLLKWETKNCSVSSTNANDITQSLTGKGNDSEEEMRFQEVFMEHMSNMEKRIQHILDMEANLMDTEHFQNFSMTTDQRFNDILLQLSTLFSSVQGHGNAIDEISKSLISLNTTLLDLQLNIENLNGKIQENTFKQQEEISKLEERVYNVSAEIMAMKEEQVHLEQEIKGEVKVLNNITNDLRLKDWEHSQTLRNITLIQGPPGPPGEKGDRGPTGESGPRGFPGPIGPPGLKGDRGAIGFPGSRGLPGYAGRPGNSGPKGQKGEKGSGNTLTPFTKVRLVGGSGPHEGRVEILHSGQWGTICDDRWEVRVGQVVCRSLGYPGVQAVHKAAHFGQGTGPIWLNEVFCFGRESSIEECKIRQWGTRACSHSEDAGVTCTL
partner: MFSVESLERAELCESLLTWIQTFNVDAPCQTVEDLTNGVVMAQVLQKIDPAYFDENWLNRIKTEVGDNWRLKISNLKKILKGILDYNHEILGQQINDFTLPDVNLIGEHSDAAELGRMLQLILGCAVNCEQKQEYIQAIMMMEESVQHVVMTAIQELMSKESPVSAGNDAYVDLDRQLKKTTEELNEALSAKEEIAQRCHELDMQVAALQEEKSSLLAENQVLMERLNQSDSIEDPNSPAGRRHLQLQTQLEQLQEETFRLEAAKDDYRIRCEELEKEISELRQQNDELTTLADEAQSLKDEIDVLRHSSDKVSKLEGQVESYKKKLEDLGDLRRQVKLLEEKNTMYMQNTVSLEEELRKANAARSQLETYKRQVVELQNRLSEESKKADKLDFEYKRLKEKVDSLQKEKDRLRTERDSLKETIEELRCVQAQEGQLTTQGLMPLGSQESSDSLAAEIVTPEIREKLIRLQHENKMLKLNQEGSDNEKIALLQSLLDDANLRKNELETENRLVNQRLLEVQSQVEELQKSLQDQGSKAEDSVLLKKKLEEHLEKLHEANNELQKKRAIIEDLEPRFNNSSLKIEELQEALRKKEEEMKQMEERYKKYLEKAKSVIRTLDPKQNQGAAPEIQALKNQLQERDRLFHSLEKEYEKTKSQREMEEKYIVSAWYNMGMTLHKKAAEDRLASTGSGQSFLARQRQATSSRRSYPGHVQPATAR

Variants of B1 are the subject of the experiment. The settings on record: with hook3_human HOOK3, Q86VS8.
With E12A;D13A;D15A, the “effect of a mutation on the interaction” value is given as “disrupting interaction”.

Values taken from IntAct's records for PubMed 17237231.
